Source: the supplement of paper PMC9112550, “Optimization of the antimicrobial peptide Bac7 by deep mutational scanning” (BMC Biology, 2022)

System: Escherichia coli TOP10
Experiment: shrunken log2 fold change of peptide-encoding DNA abundance (4.5 h post-induction vs induction); higher = less antimicrobial activity (less host growth inhibition)
Conditions: time post-induction: 4.5 h; library: site-saturation at positions 5, 18, 19, 20
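Also: peptides expressed intracellularly from a pBAD plasmid library in pooled LB shake-flask culture, induced with 0.3% L-arabinose, DNA abundance read by NGS, three biological replicates, DESeq2 with apeglm shrinkage.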

Sequence	shrunken log2 fold change
RRIRERPPRLPRPRPRPDGMPRP	-0.0237
RRIRERPPRLPRPRPRPPFNPRP	-0.275
RRIRNRPPRLPRPRPRPVNQPRP	0.214
RRIRLRPPRLPRPRPRPDAYPRP	-0.281
RRIRMRPPRLPRPRPRPLDLPRP	0.062
RRIRCRPPRLPRPRPRPGDMPRP	-0.115
RRIRKRPPRLPRPRPRPTAPPRP	1.05
RRIRFRPPRLPRPRPRPLHTPRP	-0.262
RRIRARPPRLPRPRPRPVEWPRP	0.544
RRIRHRPPRLPRPRPRPWDKPRP	-0.000233
RRIRVRPPRLPRPRPRPGDWPRP	0.432
RRIRRRPPRLPRPRPRPCSCPRP	-0.017
RRIRLRPPRLPRPRPRPLCVPRP	0.688
RRIRARPPRLPRPRPRPVEIPRP	0.0505
RRIRDRPPRLPRPRPRPKINPRP	-0.389
RRIRLRPPRLPRPRPRPLWEPRP	0.697
RRIRGRPPRLPRPRPRPKVQPRP	1.06
RRIRFRPPRLPRPRPRPAMFPRP	-0.292
RRIRMRPPRLPRPRPRPFGLPRP	-0.0107
RRIRVRPPRLPRPRPRPQYNPRP	-0.851

Sequence	shrunken log2 fold change
RRIRRRPPRLPRPRPRPNFFPRP	0.184
RRIRWRPPRLPRPRPRPDTDPRP	0.225
RRIRYRPPRLPRPRPRPAWPPRP	0.363
RRIRRRPPRLPRPRPRPVGSPRP	0.432
RRIRTRPPRLPRPRPRPKMPPRP	0.158
RRIRCRPPRLPRPRPRPYDCPRP	-0.451
RRIRLRPPRLPRPRPRPPWHPRP	0.193
RRIRCRPPRLPRPRPRPDWKPRP	0.0808
RRIRYRPPRLPRPRPRPHWYPRP	-1.02
RRIRKRPPRLPRPRPRPMCNPRP	0.26
RRIRGRPPRLPRPRPRPEPTPRP	1.52
RRIRSRPPRLPRPRPRPDNCPRP	-0.103
RRIRARPPRLPRPRPRPRDWPRP	0.577
RRIRPRPPRLPRPRPRPDMSPRP	-0.303
RRIRSRPPRLPRPRPRPPFQPRP	0.073
RRIRQRPPRLPRPRPRPGQYPRP	-0.156
RRIRPRPPRLPRPRPRPMNQPRP	0.00354
RRIRKRPPRLPRPRPRPVVNPRP	0.000998
RRIRQRPPRLPRPRPRPCEHPRP	0.0413
RRIRGRPPRLPRPRPRPKSEPRP	0.9

Sequence	shrunken log2 fold change
RRIRMRPPRLPRPRPRPQDFPRP	0.0427
RRIRFRPPRLPRPRPRPDLAPRP	0.0811
RRIRLRPPRLPRPRPRPIAFPRP	-0.14
RRIRMRPPRLPRPRPRPTWRPRP	0.894
RRIRNRPPRLPRPRPRPPLRPRP	0.138
RRIRGRPPRLPRPRPRPGPLPRP	0.363
RRIRNRPPRLPRPRPRPARYPRP	0.0763
RRIRYRPPRLPRPRPRPMITPRP	-0.386
RRIRVRPPRLPRPRPRPPCGPRP	0.297
RRIRQRPPRLPRPRPRPIHYPRP	0.0133
RRIRGRPPRLPRPRPRPYYPPRP	-0.791
RRIRLRPPRLPRPRPRPMEWPRP	-0.0102
RRIRRRPPRLPRPRPRPQYEPRP	-0.00402
RRIRHRPPRLPRPRPRPISLPRP	-0.234
RRIRQRPPRLPRPRPRPHEFPRP	-0.287
RRIRMRPPRLPRPRPRPKTWPRP	0.602
RRIRVRPPRLPRPRPRPQKKPRP	-0.117
RRIRNRPPRLPRPRPRPYYRPRP	0.0545
RRIRLRPPRLPRPRPRPTQPPRP	0.634
RRIRPRPPRLPRPRPRPKRMPRP	0.139
